B1: LINE1-full (parent)
chain: UACGUAGGUGGUUUUCCCCUGAUAGUGCUAAGGGGGCCUGGAAGUUUGGACUGGGCAGAGCUCAACACAGCGUGGCAAAGUGGCUGUGGCUAGACUGCCUCUCUGGAUUCCUCGUCACUCAGCAGGGCAUCUCUGAGAGAAAUGCC

Variants of: B1
Test: self-cleavage, relative activity (ratio to wild type); higher = more cleavage; in vitro, sequencing; the parent is a self-cleaving ribozyme
In the case of U12C A65U, the self-cleavage is reported as 0.21. With C16A A121G the self-cleavage was 0.53. A57U A79U gave a self-cleavage of 0.1. In the case of U26C U108G, the self-cleavage is reported as 2.12. Variant G32C A77U has a self-cleavage of 0.81. With U15C G54A the self-cleavage was 0.74. A138G A142G showed a self-cleavage of 1.39. Variant A64C U73A has a self-cleavage of 0.32. Work on G55C A94C yielded a self-cleavage of 0. Work on G7A A30G yielded a self-cleavage of 0.84. C101U G139U showed a self-cleavage of 1.64. In the case of C118A U132C, the self-cleavage is reported as 1. U26A G137A gave a self-cleavage of 1.53. A140G C145A gave a self-cleavage of 1.28. With G54A A117U the self-cleavage was 1.1. In the case of U46G G60C, the self-cleavage is reported as 0. With C19U U104A the self-cleavage was 1.07. C37U U130A showed a self-cleavage of 0.99. U39A G74A showed a self-cleavage of 0.88. With A64C U115C the self-cleavage was 0.47. Work on A64C U115A yielded a self-cleavage of 0.38. A117C A136G gave a self-cleavage of 1.79. For A43G G114A, the self-cleavage was 1.05. Variant U20C C123U has a self-cleavage of 0.91. For C19U U47C, the self-cleavage was 0.98. With A57G A69G the self-cleavage was 0.21. In the case of U29A A50G, the self-cleavage is reported as 0.51. With U5C C19A the self-cleavage was 0.8. Work on U46A U62A yielded a self-cleavage of 0.04. In the case of U39A C63U, the self-cleavage is reported as 0.43. In the case of U91C C120A, the self-cleavage is reported as 0.74. For A22G A140G, the self-cleavage was 0.8. Variant A6U A65G has a self-cleavage of 0.26. With A67G G82A the self-cleavage was 0.23. For A6U U87A, the self-cleavage was 0.15. For C51A A67G, the self-cleavage was 0.63. Work on U81C A141G yielded a self-cleavage of 1.07. A136C showed a self-cleavage of 1.34. G32C A78G showed a self-cleavage of 0.73. U81C G139A showed a self-cleavage of 1.63. Variant U104C U108A has a self-cleavage of 2.04. C68U U134A gave a self-cleavage of 0.18. Work on C90U U112C yielded a self-cleavage of 0.03. G11A A77G gave a self-cleavage of 1.08. For A117G A129G, the self-cleavage was 1.32. In the case of U52G C101U, the self-cleavage is reported as 1.55. Variant A57G G82C has a self-cleavage of 1.36. Variant U13C U47G has a self-cleavage of 0.81. With A31G A57U the self-cleavage was 0.3. U45C A117C showed a self-cleavage of 2.57. In the case of A64G A140G, the self-cleavage is reported as 0.26. In the case of A92U A117G, the self-cleavage is reported as 1.46. In the case of A50G A138U, the self-cleavage is reported as 0.95. G32C U108C showed a self-cleavage of 1.55. In the case of G4A G40A, the self-cleavage is reported as 1.24. With A30U A121G the self-cleavage was 1.08. In the case of U45C G126A, the self-cleavage is reported as 1.32. In the case of A6G G41U, the self-cleavage is reported as 0.46. For U15A U96A, the self-cleavage was 0.09. Variant C56U C76U has a self-cleavage of 0.34. Work on G44A A79U yielded a self-cleavage of 1.89. With A69U A77U the self-cleavage was 0.06. With U115C A129U the self-cleavage was 2.01. In the case of C3U U115C, the self-cleavage is reported as 1.03. G80U A121G showed a self-cleavage of 1.5. For A50G C63A, the self-cleavage was 0.02. Variant A30G has a self-cleavage of 1.09. For U45C U47G, the self-cleavage was 1.09. U13A U134A gave a self-cleavage of 0.51. With U13A U45C the self-cleavage was 1.01. In the case of A64G A67G, the self-cleavage is reported as 0.09. Work on U39G U132C yielded a self-cleavage of 2.44. With A31G C37A the self-cleavage was 1.32. For G7A A129C, the self-cleavage was 1.07. U91A A140G gave a self-cleavage of 0.45. Work on U12A C16A yielded a self-cleavage of 0.97. With G21U G72A the self-cleavage was 1.62. In the case of U12G U73A, the self-cleavage is reported as 1.68. With U1C C128A the self-cleavage was 0.79. Variant A24G A57C has a self-cleavage of 0. In the case of U87A U115G, the self-cleavage is reported as 0.13. For U73C U119C, the self-cleavage was 2.11. In the case of U12C A50U, the self-cleavage is reported as 1.54. In the case of U20C, the self-cleavage is reported as 1.37. U87A A138G showed a self-cleavage of 0.07. For A31G U87A, the self-cleavage was 0.13. A22U A77G showed a self-cleavage of 2.23. Work on U20A A121U yielded a self-cleavage of 1.55. With U20A A121G the self-cleavage was 1.14. A64C U134C showed a self-cleavage of 0.61. C56U U73A gave a self-cleavage of 0.08. In the case of U12G G70A, the self-cleavage is reported as 0.07. For A79U A121C, the self-cleavage was 1.64. G106U A117U gave a self-cleavage of 1.26. Variant C56U A57G has a self-cleavage of 0.04. G54A U96A gave a self-cleavage of 0.03. Variant U14C C28A has a self-cleavage of 0.74. Variant A64G U73A has a self-cleavage of 0.19. For G8U C128U, the self-cleavage was 1.14. With G58A A107G the self-cleavage was 0.04. Work on A43G G83A yielded a self-cleavage of 1.03. In the case of U100A C145U, the self-cleavage is reported as 1.15. U13A C110A gave a self-cleavage of 0.84. For U23A C98U, the self-cleavage was 0.26. With A79G A107G the self-cleavage was 1.21. U91A G126A gave a self-cleavage of 0.43. With U47C U115A the self-cleavage was 1.75. Work on U20C A117G yielded a self-cleavage of 1.59. C68U U104A gave a self-cleavage of 0.03. Variant U130C C131U has a self-cleavage of 1.28. In the case of U96A C110G, the self-cleavage is reported as 0.09. U12A showed a self-cleavage of 1.17. Variant A30G A140C has a self-cleavage of 0.93. For U45C U62A, the self-cleavage was 0.04. Work on C99U C113U yielded a self-cleavage of 0.41. In the case of U14A A124U, the self-cleavage is reported as 1.67. U130A U134C gave a self-cleavage of 1.84. U134A A138U gave a self-cleavage of 1.72. With C38U U45C the self-cleavage was 1.39. A94C C95U gave a self-cleavage of 0.02. For U47C A78G, the self-cleavage was 1.64. Work on G114A A121U yielded a self-cleavage of 1.37. Variant A2G A43G has a self-cleavage of 0.87. U13G U119A gave a self-cleavage of 1.8. Work on U73A U100A yielded a self-cleavage of 0.97. For A77G A117G, the self-cleavage was 2.32. For U29C G32A, the self-cleavage was 1.08. For G7A A121G, the self-cleavage was 1.18. U13A A22G showed a self-cleavage of 1.05. U87C U119A showed a self-cleavage of 0.19. With U91A A124U the self-cleavage was 0.48. Work on A67C A77G yielded a self-cleavage of 0.22. With G33A A121G the self-cleavage was 1.28. In the case of U87G, the self-cleavage is reported as 0.21. In the case of U20A A67U, the self-cleavage is reported as 0.13. In the case of U9C G122C, the self-cleavage is reported as 0. In the case of G34U G48A, the self-cleavage is reported as 1.49. U46C C95U gave a self-cleavage of 0.23. With C84U U85C the self-cleavage was 0. A31U A64U gave a self-cleavage of 0.42. For U13A A65G, the self-cleavage was 0.08. Variant C113A A141G has a self-cleavage of 1.23. Variant U47A U109C has a self-cleavage of 1.19. For U73C A129U, the self-cleavage was 2.11. For U12G C99A, the self-cleavage was 0.32. G93C gave a self-cleavage of 0.05. A22G U29C gave a self-cleavage of 1.42. Variant G40A U104A has a self-cleavage of 0.75. In the case of U20A A117C, the self-cleavage is reported as 1.77. For G93U G122A, the self-cleavage was 0.06. Work on U9C U143A yielded a self-cleavage of 1.28. U96A U102C showed a self-cleavage of 0.12. In the case of U45G U96A, the self-cleavage is reported as 0.03. In the case of U47A G127U, the self-cleavage is reported as 1.67. A24G A69G showed a self-cleavage of 0.92. A64G A69C showed a self-cleavage of 0. For G35C U85C, the self-cleavage was 0.22. Work on A43U G105A yielded a self-cleavage of 1.21. For G4U A77G, the self-cleavage was 2.68. For U9C G80A, the self-cleavage was 1.65. Variant C3U A30G has a self-cleavage of 1.75. Variant A22U G25A has a self-cleavage of 0.7. With C37A C95A the self-cleavage was 0.01. In the case of A94U A117U, the self-cleavage is reported as 0.41. Variant C90G has a self-cleavage of 0.03. With G40A U87C the self-cleavage was 0.06. Work on U1C A142G yielded a self-cleavage of 0.99.

From the RNAGym collection of RNA variant scans (doi:10.7554/elife.90254)
